{
  "source": "the DeepSol protein solubility set",
  "data": [
    {"test": "soluble on expression in E. coli; label from the status in PepcDB or PDB records", "values": [
      {"sequence": "MSLAQIDFRKKINWHRRYRSPQGVKTEHEILRIFESDRGRIINSPAIRRLQQKTQVFPLERNAAVRTRLTHSMEVQQVGRYIAKEILSRLKELKLLEAYGLDELTGPFESIVEMSCLMHDIGNPPFGHFGEAAINDWFRQRLHPEDAESQPLTDDRCSVAALRLRDGEEPLNELRRKIRQDLCHFEGNAQGIRLVHTLMRMNLTWAQVGGILKYTRPAWWRGETPETHHYLMKKPGYYLSEEAYIARLRKELNLALYSRFPLTWIMEAADDISYCVADLEDAVEKRIFTVEQLYHHLHEAWGQHEKGSLFSLVVENAWEKSRSNSLSRSTEDQFFMYLRVNTLNKLVPYAAQRFIDNLPAIFAGTFNHALLEDASECSDLLKLYKNVAVKHVFSHPDVERLELQGYRVISGLLEIYRPLLSLSLSDFTELVEKERVKRFPIESRLFHKLSTRHRLAYVEAVSKLPSDSPEFPLWEYYYRCRLLQDYISGMTDLYAWDEYRRLMAVEQEGHHHHHH", "soluble on expression in E. coli": "soluble"},
      {"sequence": "MVTKAKQIREKESKVAEFKYKNLTQEEQDKLDAATFRRLLAHLDANKDVQNIDLMILAGFCRNCFSKWYKAEAENLSLDLDIDDARERVYGMTYDEWKQNHQPAATPEQLAAFEARQKK", "soluble on expression in E. coli": "not soluble"},
      {"sequence": "MGSDKIHHHHHHMKLHQLRALVAIHNAGSILEASKLMHITQPALSRSIKELEREVGFTLLQRSHKGMALTEEGKRVIRHANLVVESIRRLQIEAASIQDAALGAVSIGVTSLTAMLDGVDESILAFRRKYPRVKITITDLRPSQILQRLRDGSLDFAITSQQPLSRLSLDWEALGSIKGRVICHASNRQKFSQSLRTLQYAPWISLDELSDQASQFHQLFEANGLRVPQNTVECTSVMMALKLLKNTESLMTISELAVDQGFTYGIDCEFVAMAVQELIPDYPINLVCIDRHSLTAPAQELFHSLRGQVLKQTRPVGSEVVVHA", "soluble on expression in E. coli": "not soluble"},
      {"sequence": "MSHGDQLEQYQDQYFDCIKKYDMPAALEVLELIAESCIELNDDDPLIEACERGASYLKCCLKYENLVNLHASQKINDHTLFFLNLEVRRRSTYQCFATTRSFLTPHRKRQLAKTMNAEPRIFAFGLNANNNLGVDTVQSALVDVPTEIYVPPVYEMKMSNFHSVFWCHDGKFFGCGETKNFMISKPDSELPRIVKFPMELDIQIWRNEMIVGIKALENGTLFQTDRRLYFVGDYQKSKAYLKTFHDEEFDMVTQLPYATPNFWITQSRPVSSISAYKLDDKKNVTILRVKSVSYWIQVYPDYWTELNPGYIKKRPVVYLLDDVEVKNIRIETVGCNIIYVVHELTLYFGKMTMTMVENSDGDENNLDNYILFVELHEYRTRSPYLCTGVATNKAQGVLMKCGDFPCVGFDYLEIAENRFRGNVQKYMFETVEKFMESYDVFENDEVSMDYLLSETEKAFNSGVMEQEIKLDWLGRTEKKYRYSNFYSFLGYVSQPRLLTGPPKCFTTDIDTLLTYKDPKLVARHRMKQLFEEFERVNYPGTDVWKPTGFLKSHDIPEEDNLSEGRYRSAAMKWCVNEFMEQFNVYRENPVFNPDNLVYKEILKYLINVIWYALDQWIIITEKTENDRVAPLLREIEHKVPDDEILFQTVYPEKILENRLREGSLKMEDLPEPLNIRVTFLLRHRDPKLKPTRFNLNTCRTFFNFLYPALEDFIDENNVLDLNKLYPDDVAIHRLIAQTYFVGHGLTDLEGSEKYDRSVYDSKGVRLEPMVRFMRKGREHFRGFLRRVPSTSAPGDGPIVFPTADHQAFFKMQRVLYSRLPLTEKLPIDIEDDLYSAAIVGLQDKRVLEVLTMDEKLRILEWYEKAKMPEALMDLLKQCIIESTSKNYYHIRYLFSQYPIMTQRFIAQYRPGIILWHRSPIPNPQIHHVRIITEMWPKNDFERTTRIPRKKFIKNGIVEDSKFYMIGSYLRRDAYKDIHYPAQKTTKLTELFNIDFPVNGPKKSKNQMMLITFPSREIVEEEEPPQEAEQSPSPDPEKIAKRREELRKKIAEKLAASKKKKKR", "soluble on expression in E. coli": "not soluble"},
      {"sequence": "MGSDKIHHHHHHMMLGPEGGEGYVVKLRGLPWSCSIEDVQNFLSDCTIHDGVAGVHFIYTREGRQSGEAFVELESEDDVKLALKKDRESMGHRYIEVFKSHRTEMDWVLKHSGPNSADSANDGFVRLRGLPFGCTKEEIVQFFSGLEIVPNGITLPVDPEGKITGEAFVQFASQELAEKALGKHKERIGHRYIEVFKSSQEEVRSYSDPPLKFMSVQRPGPYDRPGTARRYIGIVKQAGLDRMRSGAYSAGYGGYEEYSGLSDGYGFTTDLFGRDLSYCLSGMYDHRYGDSEFTVQSTTGHCVHMRGLPYKATENDIYNFFSPLNPVRVHIEIGPDGRVTGEADVEFATHEEAVAAMSKDRANMQHRYIELFLNSTTGASNGAYSSQVMQGMGVSAAQATYSGLESQSVSGCYGAGYSGQNSMGGYD", "soluble on expression in E. coli": "not soluble"},
      {"sequence": "MIIGYARVSSLDQNLERQLENLKTFGAEKIFTEKQSGKSIENRPILQKALNFVRMGDRFIVESIDRLGRNYNEVIHTVNYLKDKEVQLMITSLPMMNEVIGNPLLDKFMKDLIIQILAMVSEQERNESKRRQAQGIQVAKEKGVYKGRPLLYSPNAKDPQKRVIYHRVVEMLEEGQAISKIAKEVNITRQTVYRIKHDNGLSSHHHHHH", "soluble on expression in E. coli": "soluble"},
      {"sequence": "MAHHHHHHMGTLEAQTQGPGSMLNKVMLIGYLGDDPESKTMTSGAEVVNFRMATFESYMNKNTHQKVEKTEWHSVVVFNPHFAKIALQYLHKGSKVYIEGKLQTRKWQDKNGHDRYTTEIVLPQYKGELHLLDAKKEQSASSSSVTSQSYAIASGADDYGISAHDSMPF", "soluble on expression in E. coli": "soluble"},
      {"sequence": "MGSDKIHHHHHHMDLQYLDNFLALAHYRSFSAAADACYISQSSFSKRIMRLENNLGVTLFERSTRQVSLTEYGQIYLKYAQQIKTLSRQATDEINRRHAEDEGIVIGGIPSISEYGILDLISGFIKTTHIHCQVKSAPSEDLEPMLLNQTLDFAFIKEVHHTNLFYQLPYAEDHLVAVLPANHPLANLSEIKLQQLANEDFIFQPVNSRPYELCMMICKQNGFTPNVIYADRIIENILNFVKKGLGVSLLMEKLVPKDSELICLPIHPAVVADINLCYLKKEPLSQYGYAFLNYFSHQNNAR", "soluble on expression in E. coli": "not soluble"},
      {"sequence": "MHYPEPISKLIDSFMKLPGIGPKTAQRLAFHTLDMKEDDVVQFAKALVDVKRELTYCSVCGHITENDPCYICEDKQRDRSVICVVEDDKDVIAMEKMREYKGLYHVLHGSISPMDGIGPEDINIPSLIERLKSDEVSELILAMNPNLEGESTAMYISRLVKPIGIKVTRLAQGLSVGGDLEYADEVTLSKAIAGRTEM", "soluble on expression in E. coli": "not soluble"},
      {"sequence": "MEISTLPIYHTKTKMFGYYAYKSFSFLPEWKIDVTRDFDVTIGPKFSANLVFGVNNRNRSDYTQFVIDKDEIIVSASVGEEVDFNYRLRDNLKAYIGLEAQVGIGERIYTKSGLYDTGKKIEGSSENAFKPYTPYIIFNNTHIMYSGKVSAGLKIRDKYNIALYGGYGKGYFGIEFGQTF", "soluble on expression in E. coli": "not soluble"},
      {"sequence": "MSLNDDYPVVLAAPTGRASKRLQESTGLEAMTIHRLIGWNQDTKPEDILENEINARLIIIDEMSMVDTWLFHQFLSAVPLDAQLIFVGDEDQLPSVGPGQVFKDLIESKAIPRVNLTEVYRQQDGSSIIELAHRMKLGQKIDITQRFHDRSFINCQANQIPTVVEKVVTSAVNKGYTMADIQVLAPMYKGNAGIKRLNQVLQDILNPKKKDTREIEFGDVVFRKGDKVLQLVNRPNDNIFNGDIGVIVGIFWAKENALNKDVLVVDFEGNEITFTKQDMMELTHAYCTSIHKSQGSEFPIVIMPIVKQYFRMLQRPILYTGLTRAKTSLVLLGDPEAFDIGLKTNGQARLTQLCTLLKNYFNSEGHHHHHH", "soluble on expression in E. coli": "not soluble"},
      {"sequence": "MSYYHHHHHHDYDIPTTENLYFQGAMGSGIPMSLPGSTHSTAAELTGPSLVEVLRARPWFEEPPKAVELEGLAACEGEYSQKYSTMSPLGSGAFGFVWTAVDKEKNKEVVVKFIKKEKVLEDCWIEDPKLGKVTLEIAILSRVEHANIIKVLDIFENQGFFQLVMEKHGSGLDLFAFIDRHPRLDEPLASYIFRQLVSAVGYLRLKDIIHRDIKDENIVIAEDFTIKLIDFGSAAYLERGKLFYTFCGTIEYCAPEVLMGNPYRGPELEMWSLGVTLYTLVFEENPFCELEETVEAAIHPPYLVSKELMSLVSGLLQPVPERRTTLEKLVTDPWVTQPVNLADYTWEEVCRVNKPESGVLSAASLEMGN", "soluble on expression in E. coli": "soluble"},
      {"sequence": "MGSDKIHHHHHHMTVRTRVTDLLEIEHPILMGGMAWAGTPTLAAAVSEAGGLGIIGSGAMKPDDLRKAISELRQKTDKPFGVNIILVSPWADDLVKVCIEEKVPVVTFGAGNPTKYIRELKENGTKVIPVVASDSLARMVERAGADAVIAEGMESGGHIGEVTTFVLVNKVSRSVNIPVIAAGGIADGRGMAAAFALGAEAVQMGTRFVASVESDVHPVYKEKIVKASIRDTVVTGAKLGHPARVLRTPFARKIQEMEFENPMQAEEMLVGSLRRAVVEGDLERGSFMVGQSAGLIDEIKPVKQIIEDILKEFKETVEKLRGYIEE", "soluble on expression in E. coli": "soluble"},
      {"sequence": "MDCMRKLDRVDMQLVKILSENSRLTYRELADILNTTRQRIARRIDKLKKLGIIRKFTIIPDIDKLGYMYAIVLIKSKVPSDADKVISEISDIEYVKSVEKGVGRYNIIVRLLLPKDIKDAENLISEFLQRIKNAENVEVILISEVRKFEII", "soluble on expression in E. coli": "soluble"},
      {"sequence": "HGPKTGTPETKTVEIPFETKREFNPKLQPGEERVKQEGQPGSKTITTPITVNPLTGEKVGEGQPTEEITKQPVDKIVEFGGEK", "soluble on expression in E. coli": "soluble"},
      {"sequence": "MELRDRIDFLCKTILAIKTAGRLVLGIDGLSRSGKTTLANQLSQTLREQGISVCVFHMDDHIVERAKRYHTGNEEWFEYYYLQWDVEWLTHQLFRQLKASHQLTLPFYDHETDTHSKRTVYLSDSDMIMIEGVFLQRKEWRPFFDFVVYLDCPREIRFARENDQVKQNIQKFINRYWKAEDYYLETEEPIKRADVVFDMTS", "soluble on expression in E. coli": "soluble"},
      {"sequence": "MGSDKIHHHHHHMTDISWEMNDQTIVRKTDKIARQDTLPDLTLKKVKQGDRMRFDAHVNVDSMAEGQHLKRVTIFSNVPGGGTWELISDEGVAVGGRGTAPSPQMYFAAGLGLCLMSHVEMLAKSGEFEITSARLEQRSTWTTTMDLGAVAPANIYGKGEHMQMNLIIESPEPTPKIAEFIAYCRQACMALQTVAAATPVATGLYLNGAHIGDVGGTGPFAKVA", "soluble on expression in E. coli": "not soluble"},
      {"sequence": "MTGASRPPKSRRSAAAAPSPEGLTLDLERYVPAFITFIANKLSNSATAFYQGNFGVNVTEWRIMSLLAIEPGISAARICQVIGFNKGPVSRTLSDMQSRGLITIRVDPNDARTHSISLTGKGRATHDKVIVAALERERKLMSCLSADEQEVLIDLLRRLHNNLGAVTGETT", "soluble on expression in E. coli": "not soluble"},
      {"sequence": "MAHHHHHHMSSAFLAQLPFVGSSSTLGWQHDDVARSYMEHVLHRARVLLPRRGWRIGLIKEFYPRGATLLGLNVNAGSEVCIRFRVPGKKNEFLPFHEVLCTALHEFTHCVHSRHDRAFWNLYYDLVKECEALEITMIQQGMRLYPAISSTPMSCTGTASQQSRSGREGRTAATASSARGGGRRLGNGGARGGGRGAGGGMSTGSRHVAQTVIKAGRAVSSSSSSPPSSAAFPGEGRRLGGGGFRQYDAPIGFTPTRDALRRILAGAAERRLARTPPLAATVTLGSHPLALSLHNTTFPQRDEGQSEVDDDDAPDCVPHSLSGHEDGGGWNCPRCGFRNDDNVVGSCAFCADCDDEDEGEATWRKRPRLDSDHSPLETPTIVVSLATASKTAPTQQLQQQQLECTAEEHYIVVSDEDDS", "soluble on expression in E. coli": "soluble"},
      {"sequence": "RWETHVYRAVKDLLVGLGFTEVLQLVLTSPRLVEAAGFSSMAVEVLNPVQQEYSVLRPTLLITLLQTLRENQHRRKPVKVFEAGNAVYLEDGEPRDEEKLALGVLDEEAGFEDVQAPLYAVLRIMGVDFEVEEASHPMFMEGRTAAVKVGGERLGYIGEVKPEVLEAFGLEYPVAAAEISLEVLARWTSRT", "soluble on expression in E. coli": "not soluble"}
    ]}
  ]
}
